Patent publication US20070166779

T1: SLPI present in human saliva
T1 chain: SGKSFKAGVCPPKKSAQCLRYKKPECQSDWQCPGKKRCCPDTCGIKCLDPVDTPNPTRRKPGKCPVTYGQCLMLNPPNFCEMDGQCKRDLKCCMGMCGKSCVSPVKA

T2: recombinant human SLPI
T2 chain: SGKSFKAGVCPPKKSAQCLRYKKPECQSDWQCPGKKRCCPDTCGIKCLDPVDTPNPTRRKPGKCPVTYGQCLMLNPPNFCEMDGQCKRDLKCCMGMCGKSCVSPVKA


Experiments:
[1] = target: T1, SLPI present in human saliva
recombinant human SLPI = target: T2, recombinant human SLPI

Protein	cleavage of SLPI in human saliva, Western analysis [1]	cleavage of rSLPI, LC/MS (1 ug rSLPI, 50 ng protease, 5 hours) (recombinant human SLPI)	cleavage of the reduced form of rSLPI (recombinant human SLPI)	cleavage of rSLPI at ten-fold excess of rSLPI (data not shown) (recombinant human SLPI)	cleavage of rSLPI, LC/MS (second peak with additional 18 mass units) (recombinant human SLPI)	cleavage of rSLPI, SDS-PAGE with Coomassie stain (rSLPI:chymase molar ratio 40:1, 37 C) (recombinant human SLPI)
proteinase 3 (protein) IVGGHEAQPHSRPYMASLQMRGNPGSHFCGGTLIHPSFVLTAAHCLRDIPQRLVNVVLGAHNVRTQEPTQQHFSVAQVFLNNYDAENKLNDVLLIQLSSPANLSASVATVQLPQQDQPVPHGTQCLAMGWGRVGAHDPPAQVLQELNVTVVTFFCRPHNICTFVPRRKAGICFGDSGGPLICDGIIQGIDSFVIWGCATRLFPDFFTRVALYVDWIRSTLR	The larger SLPI cleavage product was not observed when the saliva samples were incubated with cathepsin G, tryptase and proteinase 3	did not result in the formation of the second peak	Reduction of the rSLPI samples in the presence of the proteases did result in cleavage of the SLPI protein	–	–	–
human chymase (protein) IIGGTECKPHSRPYMAYLEIVTSNGPSKFCGGFLIRRNFVLTAAHCAGRSITVTLGAHNITEEEDTWQKLEVIKQFRHPKYNTSTLHHDIMLLKLKEKASLTLAVGTLPFPSQFNFVPPGRMCRVAGWGRTGVLKPGSDTLQEVKLRLMDPQACSHFRDFDHNLQLCVGNPRKTKSAFKGDSGGPLLCAGVAQGIVSYGRSDAKPPAVFTRISHYRPWINQILQAN	exogenous chymase cleaved SLPI in the saliva sample as it did with the rSLPI	–	–	Even in a ten-fold excess of rSLPI to chymase most of the rSLPI protein was cleaved	the presence of the second peak indicated that chymase indeed cleaved rSLPI	cleavage of recombinant human SLPI was observed after rSLPI was incubated with human chymase for about 20 minutes
cathepsin G (protein) IIGGRESRPHSRPYMAYLQIQSPAGQSRCGGFLVREDFVLTAAHCWGSNINVTLGAHNIQRRENTQQHITARRAIRHPQYNQRTIQNDIMLLQLSRRVRRNRNVNPVALPRAQEGLRPGTLCTVAGWGRVSMRRGTDTLREVQLRVQRDRQCLRIFGSYDPRRQICVGDRRERKAAFKGDSGGPLLCNNVAHGIVSYGKSSGVPPEVFTRVSSFLPWIRTTMRS	The larger SLPI cleavage product was not observed when the saliva samples were incubated with cathepsin G, tryptase and proteinase 3	did not result in the formation of the second peak	Reduction of the rSLPI samples in the presence of the proteases did result in cleavage of the SLPI protein	–	–	–
elastase (protein) IVGGRRARPHAWPFMVSLQLRGGHFCGATLIAPNFVMSAAHCVANVNVRAVRVVLGAHNLSRREPTRQVFAVQRIFENGYDPVNLLNDIVILQLNGSATINANVQVAQLPAQGRRLGNGVQCLAMGWGLLGRNRGIASVLQELNVTVVTSLCRRSNVCTLVRGRQAGVCFGDSGSPLVCNGLIHGIASFVRGGCASGLYPDAFAPVAQFVNWIDSIIQ	Minor digestion of SLPI was observed after the saliva was incubated with elastase	did not result in the formation of the second peak	Reduction of the rSLPI samples in the presence of the proteases did result in cleavage of the SLPI protein	–	–	–
